This note sets out measurements from IntAct's records for PubMed 28712572.

The target in one test is gbrap_human GABARAP (UniProt O95166).
Sequence of gbrap_human GABARAP (O95166 whole entry): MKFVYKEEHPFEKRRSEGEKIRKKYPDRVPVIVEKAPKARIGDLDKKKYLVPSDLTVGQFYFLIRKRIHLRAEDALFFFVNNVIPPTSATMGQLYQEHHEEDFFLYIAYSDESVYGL
For “Pericentriolar material 1 protein (Homo sapiens), Q15154 D1962A;F1963A;V1966A”, the “effect of a mutation on the interaction” value was “decreasing interaction strength”.

The next test has the same target. The source holds these as a separate data set.
With “Pericentriolar material 1 protein (Homo sapiens), Q15154 T1974M”, the “effect of a mutation on the interaction” value is on record as “with no effect”. The same measure, in the same setting: next, “Pericentriolar material 1 protein (Homo sapiens), Q15154 T1974N”: “with no effect”; “Pericentriolar material 1 protein (Homo sapiens), Q15154 T1974P”: “with no effect”. As to “Pericentriolar material 1 protein (Homo sapiens), Q15154 T1974Q”, the “effect of a mutation on the interaction” value is “with no effect”. For “Pericentriolar material 1 protein (Homo sapiens), Q15154 T1974R”, the “effect of a mutation on the interaction” value is recorded as “with no effect”. Same read-out and setting: as for “Pericentriolar material 1 protein (Homo sapiens), Q15154 T1974S”, the entry is “with no effect”; as for “Pericentriolar material 1 protein (Homo sapiens), Q15154 T1974V”, “with no effect”; as for “Pericentriolar material 1 protein (Homo sapiens), Q15154 T1974W”, “with no effect”. On the same count and under the same terms, as for “Pericentriolar material 1 protein (Homo sapiens), Q15154 T1974Y”, the entry is “with no effect”. On the same count and under the same terms, as for “Pericentriolar material 1 protein (Homo sapiens), Q15154 V1964A”, the entry is “disrupting interaction strength”; as for “Pericentriolar material 1 protein (Homo sapiens), Q15154 V1964C”, “with no effect”. On to “Pericentriolar material 1 protein (Homo sapiens), Q15154 V1964D”, for which the “effect of a mutation on the interaction” value is “decreasing interaction strength”. With “Pericentriolar material 1 protein (Homo sapiens), Q15154 V1964E”, the “effect of a mutation on the interaction” value is listed as “with no effect”. On the same count and under the same terms, next, “Pericentriolar material 1 protein (Homo sapiens), Q15154 V1964F”: “with no effect”; “Pericentriolar material 1 protein (Homo sapiens), Q15154 V1964G”: “disrupting interaction strength”.

Consider “Pericentriolar material 1 protein (Homo sapiens), Q15154 V1964H”, for which the “effect of a mutation on the interaction” value is on record as “disrupting interaction strength”. For “Pericentriolar material 1 protein (Homo sapiens), Q15154 V1964I”, the “effect of a mutation on the interaction” value is “with no effect”. In the case of “Pericentriolar material 1 protein (Homo sapiens), Q15154 V1964K”, the “effect of a mutation on the interaction” value was “disrupting interaction strength”.

“Pericentriolar material 1 protein (Homo sapiens), Q15154 V1964L”: the “effect of a mutation on the interaction” value was “decreasing interaction strength”.

As to “Pericentriolar material 1 protein (Homo sapiens), Q15154 V1964M”, the “effect of a mutation on the interaction” value is given as “disrupting interaction strength”. Same read-out and setting: as for “Pericentriolar material 1 protein (Homo sapiens), Q15154 V1964N”, the entry is “disrupting interaction strength”; as for “Pericentriolar material 1 protein (Homo sapiens), Q15154 V1964P”, “disrupting interaction strength”.

For “Pericentriolar material 1 protein (Homo sapiens), Q15154 V1964Q”, the “effect of a mutation on the interaction” value is “disrupting interaction strength”. For “Pericentriolar material 1 protein (Homo sapiens), Q15154 V1964R”, the “effect of a mutation on the interaction” value is given as “disrupting interaction strength”.

For the substance “Pericentriolar material 1 protein (Homo sapiens), Q15154 V1964S”, the “effect of a mutation on the interaction” value was “disrupting interaction strength”. Regarding “Pericentriolar material 1 protein (Homo sapiens), Q15154 V1964T”, the “effect of a mutation on the interaction” value is recorded as “disrupting interaction strength”. Still for that read-out and setting: next, “Pericentriolar material 1 protein (Homo sapiens), Q15154 V1964W”: “disrupting interaction strength”; “Pericentriolar material 1 protein (Homo sapiens), Q15154 V1964Y”: “decreasing interaction strength”; “Pericentriolar material 1 protein (Homo sapiens), Q15154 V1966A”: “disrupting interaction strength”. Still for that read-out and setting: as for “Pericentriolar material 1 protein (Homo sapiens), Q15154 V1966C”, the entry is “disrupting interaction strength”. For the substance “Pericentriolar material 1 protein (Homo sapiens), Q15154 V1966D”, the “effect of a mutation on the interaction” value is reported as “disrupting interaction strength”. The same measure, in the same setting: next, “Pericentriolar material 1 protein (Homo sapiens), Q15154 V1966E”: “disrupting interaction strength”; “Pericentriolar material 1 protein (Homo sapiens), Q15154 V1966F”: “with no effect”; “Pericentriolar material 1 protein (Homo sapiens), Q15154 V1966G”: “disrupting interaction strength”.

Take “Pericentriolar material 1 protein (Homo sapiens), Q15154 V1966H”: the “effect of a mutation on the interaction” value is listed as “disrupting interaction strength”.

“Pericentriolar material 1 protein (Homo sapiens), Q15154 V1966I”: the “effect of a mutation on the interaction” value is recorded as “with no effect”. The same measure, in the same setting: as for “Pericentriolar material 1 protein (Homo sapiens), Q15154 V1966K”, the entry is “disrupting interaction strength”; as for “Pericentriolar material 1 protein (Homo sapiens), Q15154 V1966L”, “with no effect”.

Turning to “Pericentriolar material 1 protein (Homo sapiens), Q15154 V1966M”, the “effect of a mutation on the interaction” value is given as “disrupting interaction strength”. Still for that read-out and setting: next, “Pericentriolar material 1 protein (Homo sapiens), Q15154 V1966N”: “disrupting interaction strength”; “Pericentriolar material 1 protein (Homo sapiens), Q15154 V1966P”: “disrupting interaction strength”; “Pericentriolar material 1 protein (Homo sapiens), Q15154 V1966Q”: “disrupting interaction strength”. Regarding “Pericentriolar material 1 protein (Homo sapiens), Q15154 V1966R”, the “effect of a mutation on the interaction” value was “disrupting interaction strength”. In the case of “Pericentriolar material 1 protein (Homo sapiens), Q15154 V1966S”, the “effect of a mutation on the interaction” value is listed as “disrupting interaction strength”.

“Pericentriolar material 1 protein (Homo sapiens), Q15154 V1966T”: the “effect of a mutation on the interaction” value is listed as “disrupting interaction strength”. Same read-out and setting: as for “Pericentriolar material 1 protein (Homo sapiens), Q15154 V1966W”, the entry is “disrupting interaction strength”; as for “Pericentriolar material 1 protein (Homo sapiens), Q15154 V1966Y”, “decreasing interaction strength”.

For another test the target is unchanged. This is another data set of the same source.
As to “Pericentriolar material 1 protein (Homo sapiens), Q15154 D1962A;F1963A;V1966A”, the “effect of a mutation on the interaction” value is “with no effect”.
